Laboratory results as given in US20120309934A1 (GWANGJU INSTITUTE OF SCIENCE AND TECHNOLOGY, published 2012).
Like-named read-outs stand apart in the source and are kept apart here.

Tests used:
[1] = biological target: T1, Peptide fragment of nAchR (Nicotinic acetylcholine receptor), 32 mer, biotinylated (N-terminal biotin); test: SPR (BIAcore X), biotinylated nAchR peptide on streptavidin chip, synthetic peptide as analyte
T1 construct: Synthesised by Anigen; Immobilised on a streptavidin chip for SPR; also called biotinylated nAchR; biotinylated-nAchR peptide
T1 peptide: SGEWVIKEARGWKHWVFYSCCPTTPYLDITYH
Method: (§1) Bipodal-peptide binder peptides specific to ED-B, VEGF or nAchR which were repetitively found in DNA sequencing were synthesized from Anigen Inc. (Korea). Affinity was measured using BIAcore X instrument (Biacore AB, Uppsala, Sweden). ED-B and nAchR were immobilized on streptavidin (SA) chip (Biacore) by injecting 2,000 RU biotinylated-EDB. VEGF was immobilized on CM5 chip (Biacore) using EDC/NHS. PBS (pH 7.4) was used as a running buffer.
(§2) The above-mentioned peptides were synthesized and their affinities to fibronectin ED-B, VEGF, VCAM1, nAchR and HAS were measured using SPR Biacore system (Biacore AB, Uppsala, Sweden).

[2] = biological target: T1, Peptide fragment of nAchR (Nicotinic …); test: SPR (BIAcore X), biotinylated nAchR peptide on SA chip
Method: as §1, §2

BSA [3] = biological target: T2, BSA (UniProt P02769 25-607); test: phage ELISA, absorbance at 450 nm
T2 construct: Control protein in the input-phage ELISA; also called bovine serum albumin

[4] = biological target: T3, GST-AR DBD protein (androgen receptor DNA binding domain with N-terminal GST) (UniProt P10275 556-636); test: phage ELISA of single clones on AR-DBD against BSA
T3 construct: In ELISA and EMSA the text calls the protein AR-DBD or AR DBD protein; also called androgen receptor DBD; not shown: GST encoded by the pGEX-4T-1 vector, N-terminal
T3 sequence (looked up): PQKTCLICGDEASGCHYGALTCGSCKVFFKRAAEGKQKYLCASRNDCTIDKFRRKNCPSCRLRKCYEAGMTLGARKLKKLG
Method: (§3) AR-DBD (10 μg/ml) and BSA (10 μg/ml) each was added to 30 wells (50 μl per well) in a 96-well ELISA plate and then kept to stand at 4° C. overnight. Next day, all wells were washed with 0.1% PBST three times, and blocked at room temperature for 2 hrs using 2% skim milk diluted with PBS. Then, the solution was removed and the plate was washed with 0.1% PBST three times. Phage peptide solution (100 μl) amplified from each clone was aliquoted to ED-B protein-bound wells and BSA protein-bound wells and kept to stand at 27° C. for 1.5 hrs. After washing with 0.1% PBST 10 times, HRP-conjugated anti-M13 antibodies (1:1,000 dilution; GE Healthcare) were added to each well and incubated at 27° C. for 1 hr. After washing with 0.1% PBST 5 times, 100 μl TMB was divided into each well to induce colorimetric reaction, followed by stopping the reaction adding 100 μl of 1 M HCl. The absorbance was measured at 450 nm to select phages which had the absorbance above 20-fold higher than BSA. XL1 cells were infected with these phages and spread in plate to produce 100-200 of plaques. […]
The phages recovered from the 5th biopanning step having the highest O/I ratio in each library were isolated as plaques. […] Most plaques were analyzed to show the absorbance value of AR-DBD higher than that of BSA. The DNA sequencing was performed for 20 clones showing the absorbance value above 5-fold higher than BSA. […]

[5] = biological target: T4, VEGF121 (human vascular endothelial growth factor) (human, UniProt P15692-9 27-147); test: phage ELISA, absorbance at 450 nm
T4 construct: Immobilised on a CM5 chip by EDC/NHS for SPR and coated on plates for phage ELISA; also called VEGF-Trx cut with thrombin
T4 sequence (looked up): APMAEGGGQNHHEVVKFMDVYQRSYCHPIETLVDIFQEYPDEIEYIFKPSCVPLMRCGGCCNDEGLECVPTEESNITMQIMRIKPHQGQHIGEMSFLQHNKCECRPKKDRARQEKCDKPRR

Streptavidin [6] = biological target: T5, Streptavidin (UniProt P22629 37-163, limits assumed); test: phage ELISA, absorbance at 450 nm
T5 construct: Control protein in the input-phage ELISA; also called straptavidin

BSA [7] = biological target: T2, BSA; test: phage ELISA, absorbance at 450 nm; remark: listed apart in the source
STAT3 protein = STAT3 protein (UniProt P40763 1-770, limits assumed); test: phage ELISA of single clones on STAT3 against streptavidin
Method: as §3, with “STAT3 (10 μg/ml), BSA (10” for “AR-DBD (10”, “and streptavidin” for “and BSA”, “to STAT3-bound” for “to ED-B protein-bound”
The phages recovered from the 4th biopanning step having the highest O/I ratio in each library were isolated as plaques. […] The DNA 10 sequencing was performed for 6 clones showing the absorbance value above 2-fold higher than streptavidin. […]

[8] = biological target: T6, Fibronectin ED-B protein (human fibronectin extra domain B, N-terminal His-tag) (human, UniProt P02751 1266-1356, biotinylated with sulfo-NHS-SS-biotin for biopanning, input-phage ELISA and SPR on the streptavidin chip); test: SPR (BIAcore X), biotinylated ED-B on streptavidin chip, synthetic peptide as analyte
T6 construct: domain: ED-B; Expressed in E. coli BL21 from pET28b; also called biotinylated-EDB; not shown: N-terminal His-tag from the pET28b vector
Method: as §1, §2

[9] = biological target: T6, Fibronectin ED-B protein (human …); test: SPR (BIAcore X), biotinylated ED-B on SA chip
Method: as §1, §2

[10] = biological target: T6, Fibronectin ED-B protein (human …); test: SPR, synthetic bipodal peptide on ED-B
Method: as §1
To verify cooperative effect of bipodal-peptide binder to antigen, we synthesized two peptides removing either N- or C-terminal region of peptide 2 to ED-B having excellent specificity in Table 3a for affinity measurement.

Streptavidin [11] = biological target: T5, Streptavidin; test: phage ELISA, absorbance at 450 nm; remark: listed apart in the source
BSA [12] = biological target: T2, BSA; test: phage ELISA, absorbance at 450 nm; remark: listed apart in the source
[13] = biological target: T6, Fibronectin ED-B protein (human …); test: phage ELISA on 10 coated proteins (streptavidin, ED-B, acetylcholine α1, BSA, VCAM, TNF-α, thrombin, myoglobin, lysozyme, visfatin), anti-M13-HRP
Method: Specificity of recombinant phages to each protein was carried out using ELISA. Each protein (5 μg/ml) was seeded into wells (50 μl per well) in a 96-well ELISA plate and next day, all wells were washed with 0.1% PBST (Tween-20) three times, and blocked at room temperature for 2 hrs using 2% skim milk. Then, the solution was completely removed and the plate was washed with 0.1% PBST three times. Recombinant phages containing the peptide of the present invention were thoroughly mixed with 2% BSA. Each mixture (100 μl) was divided into wells coated with 10 proteins and kept to stand at 27° C. for 2 hrs. After washing with 0.1% PBST 5 times, HRP-conjugated anti-M13 antibodies (1:1,000 dilution; GE Healthcare) were added to each well and incubated at 27° C. for 1 hr. After washing with 0.1% PBST 5 times, 100 μl TMB was divided into each well to induce colorimetric reaction, followed by stopping the reaction adding 100 μl of 1 M HCl. The absorbance was measured at 450 nm.

Human serum albumin [14] = biological target: T7, Human serum albumin (human, UniProt P02768 25-609); test: SPR (Biacore)
T7 construct: Bought protein; also called HSA; HAS

Streptavidin [15] = biological target: T5, Streptavidin; test: phage ELISA, absorbance at 450 nm; remark: listed apart in the source
Human serum albumin [16] = biological target: T7, Human serum albumin; test: SPR (Biacore), synthetic peptide; immobilisation of HSA not described
[17] = biological target: T4, VEGF121 (human vascular endothelial …); test: phage ELISA, absorbance at 450 nm; remark: listed apart in the source
[18] = biological target: T4, VEGF121 (human vascular endothelial …); test: SPR (BIAcore X), VEGF on CM5 chip
Method: as §1, §2

[19] = biological target: T4, VEGF121 (human vascular endothelial …); test: SPR (BIAcore X), VEGF on CM5 chip, synthetic peptide as analyte
Method: as §1, §2

BSA [20] = biological target: T2, BSA; test: phage ELISA, absorbance at 450 nm; remark: listed apart in the source

T7 sequence (P02768 25-609 limits assumed): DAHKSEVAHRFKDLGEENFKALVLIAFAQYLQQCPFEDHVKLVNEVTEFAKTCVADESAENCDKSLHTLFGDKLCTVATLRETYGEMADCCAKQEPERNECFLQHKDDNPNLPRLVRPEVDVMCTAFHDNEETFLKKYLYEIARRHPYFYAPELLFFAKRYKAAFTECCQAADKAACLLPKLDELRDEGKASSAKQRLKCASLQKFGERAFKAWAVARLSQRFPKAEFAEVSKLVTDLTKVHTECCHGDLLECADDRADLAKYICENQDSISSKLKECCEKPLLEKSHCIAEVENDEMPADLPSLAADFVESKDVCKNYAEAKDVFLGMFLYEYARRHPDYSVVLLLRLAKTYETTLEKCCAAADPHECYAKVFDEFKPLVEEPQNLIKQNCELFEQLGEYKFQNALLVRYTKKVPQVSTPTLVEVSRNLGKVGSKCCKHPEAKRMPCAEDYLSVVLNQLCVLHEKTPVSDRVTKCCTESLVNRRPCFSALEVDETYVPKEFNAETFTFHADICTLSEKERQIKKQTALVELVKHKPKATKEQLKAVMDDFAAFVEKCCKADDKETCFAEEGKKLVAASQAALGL
T6 sequence (P02751 1266-1356): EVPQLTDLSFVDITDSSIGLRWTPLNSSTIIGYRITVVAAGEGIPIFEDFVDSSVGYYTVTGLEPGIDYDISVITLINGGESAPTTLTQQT
T2 sequence (P02769 25-607 limits assumed): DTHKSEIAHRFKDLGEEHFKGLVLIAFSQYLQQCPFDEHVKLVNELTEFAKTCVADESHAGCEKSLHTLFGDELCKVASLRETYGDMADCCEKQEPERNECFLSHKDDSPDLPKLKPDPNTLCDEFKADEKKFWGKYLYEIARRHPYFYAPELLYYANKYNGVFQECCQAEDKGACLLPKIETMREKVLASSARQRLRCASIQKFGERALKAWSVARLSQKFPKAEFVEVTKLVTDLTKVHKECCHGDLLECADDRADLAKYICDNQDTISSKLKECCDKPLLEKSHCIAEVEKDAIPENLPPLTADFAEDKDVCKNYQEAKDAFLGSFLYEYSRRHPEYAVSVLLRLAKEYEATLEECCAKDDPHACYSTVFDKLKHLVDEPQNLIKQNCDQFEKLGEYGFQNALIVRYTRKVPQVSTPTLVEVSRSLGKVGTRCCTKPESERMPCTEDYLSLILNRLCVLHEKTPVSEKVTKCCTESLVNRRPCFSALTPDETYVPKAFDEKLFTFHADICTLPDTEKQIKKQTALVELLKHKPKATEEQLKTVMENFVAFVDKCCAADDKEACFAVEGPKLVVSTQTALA
T5 sequence (P22629 37-163 limits assumed): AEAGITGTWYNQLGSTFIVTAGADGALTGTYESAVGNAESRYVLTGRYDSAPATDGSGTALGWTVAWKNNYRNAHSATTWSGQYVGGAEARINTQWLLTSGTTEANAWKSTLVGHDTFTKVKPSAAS
STAT3 protein, sequence (P40763 whole entry): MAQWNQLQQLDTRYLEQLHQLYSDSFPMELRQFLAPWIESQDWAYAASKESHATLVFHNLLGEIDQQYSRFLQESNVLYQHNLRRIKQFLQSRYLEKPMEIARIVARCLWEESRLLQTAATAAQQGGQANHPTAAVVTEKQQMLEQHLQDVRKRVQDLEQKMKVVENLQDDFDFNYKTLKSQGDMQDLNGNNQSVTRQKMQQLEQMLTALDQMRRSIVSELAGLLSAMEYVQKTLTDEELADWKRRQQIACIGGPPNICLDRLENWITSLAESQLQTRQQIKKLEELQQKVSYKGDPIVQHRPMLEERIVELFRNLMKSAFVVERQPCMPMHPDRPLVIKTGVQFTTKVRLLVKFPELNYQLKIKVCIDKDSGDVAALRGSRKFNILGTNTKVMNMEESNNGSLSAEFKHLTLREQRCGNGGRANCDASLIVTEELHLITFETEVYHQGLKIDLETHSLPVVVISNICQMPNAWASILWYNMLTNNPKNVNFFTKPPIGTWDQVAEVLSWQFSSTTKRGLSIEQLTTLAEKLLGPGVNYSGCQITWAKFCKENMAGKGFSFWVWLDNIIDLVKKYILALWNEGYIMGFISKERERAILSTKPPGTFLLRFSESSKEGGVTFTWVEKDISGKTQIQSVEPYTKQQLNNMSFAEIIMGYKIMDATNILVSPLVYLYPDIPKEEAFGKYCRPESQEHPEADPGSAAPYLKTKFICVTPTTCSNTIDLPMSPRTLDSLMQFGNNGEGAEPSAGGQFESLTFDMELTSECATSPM

Q: With EASFWLGSWTWENGKWTWKGKGTLNR [Peptide 1 specific to nAchR (Table 3d), bipodal-peptide binder] as the binder, how does the Kd [1] read?
A: 73 nM

Q: And the koff [2]?
A: 0.0085 s⁻¹

Q: And the kon [2]?
A: 110000 M⁻¹ s⁻¹

Q: Does EASFWLGSWTWENGKWTWKGKGTLNR [Peptide 1 specific to nAchR (Table 3d), bipodal-peptide binder] bind (BSA [3])?
A: no binding

Q: Which “fold absorbance over BSA” value [4] does the source give for YGFAPFGSWTWENGKWTWKGYSTQKP [Peptide 1 from the AR-DBD biopanning (14/20 clones), bipodal-peptide binder] here?
A: > 5 fold

Q: With GGHNIQGSWTWENGKWTWKGWQHIWG [Peptide 2 from the AR-DBD biopanning (6/20 clones), bipodal-peptide binder] as the binder, how does the “fold absorbance over BSA” value [4] read?
A: > 5 fold

Q: Does HGFQWPGSWTWENGKWTWKGAYQFLK (also called BPB2) [STAT3-specific bipodal-peptide binder Peptide 2] bind [5]?
A: no binding

Q: Does HGFQWPGSWTWENGKWTWKGAYQFLK (also called BPB2) [STAT3-specific bipodal-peptide binder Peptide 2] bind (Streptavidin [6])?
A: no binding

Q: Does HGFQWPGSWTWENGKWTWKGAYQFLK (also called BPB2) [STAT3-specific bipodal-peptide binder Peptide 2] bind (BSA [7])?
A: no binding

Q: What about the “fold absorbance over streptavidin” value (STAT3 protein) of the same binder?
A: > 2 fold

Q: What does the source list for HCSSAVGSWTWENGKWTWKGIIRLEQ [Peptide 2 specific to fibronectin ED-B (Table 3a), bipodal-peptide binder with tryptophan zipper]?
A: Kd [8]: 75 nM; koff [9]: 0.0008 s⁻¹; kon [9]: 10000 M⁻¹ s⁻¹; Kd [10]: 43 nM; binding result (Streptavidin [11]): no binding; binding result (BSA [12]): no binding; fold absorbance over other proteins [13]: > 30 fold

Q: What does the source list for AASPYKGSWTWENGKWTWKGGWRMKM [Peptide 1 specific to HSA (Table 3e), bipodal-peptide binder]?
A: koff (Human serum albumin [14]): 0.02 s⁻¹; kon (Human serum albumin [14]): 250000 M⁻¹ s⁻¹; binding result (Streptavidin [15]): no binding; Kd (Human serum albumin [16]): 115 nM

Q: Does HSHAFYGSWTWENGKWTWKGNPGWWT [Peptide 1 specific to MyD88 (Table 3f), bipodal-peptide binder] bind [17]?
A: no binding

Q: Which results are given for HANFFQGSWTWENGKWTWKGWKYNQS [Peptide 1 specific to VEGF (Table 3b), bipodal-peptide binder]?
A: koff [18]: 0.013 s⁻¹; kon [18]: 220000 M⁻¹ s⁻¹; Kd [19]: 60 nM; binding result (BSA [20]): no binding
